Measured values as given in publication PMC3280929, “Engineered Trx2p industrial yeast strain protects glycolysis and fermentation proteins from oxidative carbonylation during biomass propagation” (Microbial Cell Factories, 2012).
Values joined by “and” are separate entries in the source; they are usually repeats but may differ in a detail not shown here. Equal values may be shown once.

Target: the molecule itself
Test: SDS-PAGE and anti-Adh1p western blot of SDS-resistant oligomers; crude extracts of T73 cells (dehydrated, grown 5 h in YPGF, or fresh with or without 5 mM glyoxal), 10% SDS-polyacrylamide gel under denaturing conditions, polyclonal anti-Adh1p

B1: alcohol dehydrogenase I (Adh1p) (enzyme, S. cerevisiae (endogenous in strain T73), UniProt P00330 1-348, looked up)
chain: MSIPETQKGVIFYESHGKLEYKDIPVPKPKANELLINVKYSGVCHTDLHAWHGDWPLPVKLPLVGGHEGAGVVVGMGENVKGWKIGDYAGIKWLNGSCMACEYCELGNESNCPHADLSGYTHDGSFQQYATADAVQAAHIPQGTDLAQVAPILCAGITVYKALKSANLMAGHWVAISGAAGGLGSLAVQYAKAMGYRVLGIDGGEGKEELFRSIGGEVFIDFTKEKDIVGAVLKATDGGAHGVINVSVSEAAIEASTRYVRANGTTVLVGMPAGAKCCSDVFNQVVKSISIVGSYVGNRADTREALDFFARGLVKSPIKVVGLSTLPEIYEKMEKGQIVGRYVVDTSK
modifications: oxidative carbonylation of the dimer, tetramer and higher bands (residues not stated)
notes: Alcohol dehydrogenase I (Adh1p) of Saccharomyces cerevisiae, subunit of approximately 37 kDa; Endogenous protein of an industrial wine strain; source: endogenous, S. cerevisiae wine strain T73 (and TTRX2), crude cell extracts
stoichiometry N: 2 and 4
